Reference: patent US11702666B2, “Cell-based assay for determining activity in the retinoblastoma pathway” (Medical Diagnostic Laboratories, LLC, priority 2017, dated 2023)
Numbering of substitutions follows the chain as printed. Numbers in names are those of the source. Entries after “also recorded” stand apart in the source; their conditions may differ.

B1: CDK4 R24C: hyperactive CDK4 mutant, COSMIC database (protein, UniProt P11802 2-303, looked up, variant R24C)
Cyclin-dependent kinase 4: ATSRYEPVAEIGVGAYGTVYKACDPHSGHFVALKSVRVPNGGGGGGGLPISTVREVALLRRLEAFEHPNVVRLMDVCATSRTDREIKVTLVFEHVDQDLRTYLDKAPPPGLPAETIKDLMRQFLRGLDFLHANCIVHRDLKPENILVTSGGTVKLADFGLARIYSYQMALTPVVVTLWYRAPEVLLQSTYATPVDMWSVGCIFAEMFRRKPLFCGNSEADQLGKIFDLIGLPPEDDWPRDVSLPRGAFPPRGPRPVQSVVPEMEESGAQLLLEMLTFNPHKRISAFRALQHSYLHKDEGNPE
B2: CDK4 D158D: CDK4 control with one nucleotide substitution that did not change the amino acid (protein, UniProt P11802 2-303, looked up)
Cyclin-dependent kinase 4: B1 Cyclin-dependent kinase 4 with C23R
modifications: silent D158D nucleotide variant
B3: CDK4 R24S: CDK4 mutant from COSMIC database (protein, UniProt P11802 2-303, looked up, variant R24S)
Cyclin-dependent kinase 4: B1 Cyclin-dependent kinase 4 with C23S
B4: CDK4 S285C: CDK4 mutant from COSMIC database (protein, UniProt P11802 2-303, looked up, variant S285C)
Cyclin-dependent kinase 4: B1 Cyclin-dependent kinase 4 with C23R, S284C
B5: CDK4 K155Q: CDK4 mutant from COSMIC database (protein, UniProt P11802 2-303, looked up, variant K155Q)
Cyclin-dependent kinase 4: B1 Cyclin-dependent kinase 4 with C23R, K154Q
B6: CDK4 D158N: CDK4 mutant, literature kinase dead (protein, UniProt P11802 2-303, looked up, variant D158N)
Cyclin-dependent kinase 4: B1 Cyclin-dependent kinase 4 with C23R, D157N
B7: CDK4 D158Y: CDK4 mutant from COSMIC database (protein, UniProt P11802 2-303, looked up, variant D158Y)
Cyclin-dependent kinase 4: B1 Cyclin-dependent kinase 4 with C23R, D157Y
B8: CDK4 F931 T102K: CDK4 double mutant F93I and T102K (protein, UniProt P11802 2-303, looked up, variant F93I T102K)
Cyclin-dependent kinase 4: B1 Cyclin-dependent kinase 4 with C23R, F92I, T101K
B9: CDK4 I12L: predicted drug resistant CDK4 mutant (protein, UniProt P11802 2-303, looked up, variant I12L)
Cyclin-dependent kinase 4: B1 Cyclin-dependent kinase 4 with I11L, C23R
B10: CDK4 L49R: predicted drug resistant CDK4 mutant (protein, UniProt P11802 2-303, looked up, variant L49R)
Cyclin-dependent kinase 4: B1 Cyclin-dependent kinase 4 with C23R, L48R
B11: CDK4 L161L: CDK4 silent variant (C-T) from COSMIC database (protein, UniProt P11802 2-303, looked up)
Cyclin-dependent kinase 4: B1 Cyclin-dependent kinase 4 with C23R
modifications: silent L161L nucleotide variant
notes: CDK4 silent variant (C-T) from COSMIC database
B12: CDK4 T102K: predicted drug resistant CDK4 mutant (protein, UniProt P11802 2-303, looked up, variant T102K)
Cyclin-dependent kinase 4: B1 Cyclin-dependent kinase 4 with C23R, T101K
B13: CDK4 K22M: CDK4 mutant from COSMIC database (protein, UniProt P11802 2-303, looked up, variant K22M)
Cyclin-dependent kinase 4: B1 Cyclin-dependent kinase 4 with K21M, C23R
B14: CDK4 K35R: CDK4 mutant from COSMIC database (protein, UniProt P11802 2-303, looked up, variant K35R)
Cyclin-dependent kinase 4: B1 Cyclin-dependent kinase 4 with C23R, K34R
B15: CDK4 A157S: predicted drug resistant CDK4 mutant (protein, UniProt P11802 2-303, looked up, variant A157S)
Cyclin-dependent kinase 4: B1 Cyclin-dependent kinase 4 with C23R, A156S
B16: CDK4 T102R: predicted drug resistant CDK4 mutant (protein, UniProt P11802 2-303, looked up, variant T102R)
Cyclin-dependent kinase 4: B1 Cyclin-dependent kinase 4 with C23R, T101R
B17: CDK4 K35M: CDK4 mutant, literature kinase dead (protein, UniProt P11802 2-303, looked up, variant K35M)
Cyclin-dependent kinase 4: B1 Cyclin-dependent kinase 4 with C23R, K34M
B18: CDK4 I51F: predicted drug resistant CDK4 mutant (protein, UniProt P11802 2-303, looked up, variant I51F)
Cyclin-dependent kinase 4: B1 Cyclin-dependent kinase 4 with C23R, I50F
B19: CDK4 V137I: CDK4 mutant from COSMIC database (protein, UniProt P11802 2-303, looked up, variant V137I)
Cyclin-dependent kinase 4: B1 Cyclin-dependent kinase 4 with C23R, V136I
B20: CDK4 A33S: predicted drug resistant CDK4 mutant (protein, UniProt P11802 2-303, looked up, variant A33S)
Cyclin-dependent kinase 4: B1 Cyclin-dependent kinase 4 with C23R, A32S
B21: CDK4 F93I: predicted drug resistant CDK4 mutant (protein, UniProt P11802 2-303, looked up, variant F93I)
Cyclin-dependent kinase 4: B1 Cyclin-dependent kinase 4 with C23R, F92I
B22: CDK4 R210Q: CDK4 mutant from COSMIC database (protein, UniProt P11802 2-303, looked up, variant R210Q)
Cyclin-dependent kinase 4: B1 Cyclin-dependent kinase 4 with C23R, R209Q
B23: CDK4 G18A: predicted drug resistant CDK4 mutant (protein, UniProt P11802 2-303, looked up, variant G18A)
Cyclin-dependent kinase 4: B1 Cyclin-dependent kinase 4 with G17A, C23R

System: Rb/E2F1-Dp-1 complex
Test: CDK4 mutant activity / drug resistance in NanoBiT assay, stable cell line #11
Assay type: cell-based, human
Conditions: for luciferase signal compared to WT CDK4 (in words): no drug; for Observed drug resist.: Palbociclib/Ribociclib, KD = kinase dead
Method: A linear expression cassette of mutated CDK4 or CDK6 was generated by PCR mediated overlapping extension method. A pair of forward and reverse primers containing the targeted mutations was designed. The mutated codon was located in the middle of a primer flanked by 18-21 nucleotides on each side. Two PCRs (named as PCR #1 and PCR #2 in FIG. 1) were performed using UF-CMV forward and mutated reverse primers, or mutated forward and BGH-UR primers. The PCR products were cleaned up by ExoSAP-IT® (Affymetrix) to remove unconsumed dNTPs and primers. The treated PCR products were mixed together followed by dilution with water. A second round of PCR was performed using the diluted PCR mixture, and the UF and UR primers (FIG. 1). The amplified products were gel-purified. The DNA concentration was quantitated by the optical density at 260 nm using Nanodrop. The targeted mutations were incorporated in the CDK4 or CDK6 genes during the PCR mediated overlapping extension method. The introduced mutations were confirmed by the DNA sequencing.
To examine the ability of the assay to detect variants in CDK4 or CDK6 that affect function, kinase dead mutants and COSMIC (Catalogue Of Somatic Mutations in cancer) unknown mutants were created. For comparison, hyperactive CDK4 or CDK6 mutants known to be hyperactive due to less binding to natural inhibitor p16 were also created. The mutations in CDK4 or CDK6 were created by site-directed mutagenesis. WT or mutated CDK4 or CDK6 along with the CyclinD1 and SB-Rb were co-transfected, under similar conditions as previously indicated (see FIG. 9).
To examine the specificity of the assay, particular CDK4 kinase dead mutants were created. Modifications to D158 were made by changing aspartate to nonpolar alanine (D158A) or positively charged arginine (D158R). […] The mutations in CDK4 were created by site-directed mutagenesis. WT or mutated CDK4 along with the CyclinD1 and SB-Rb was co-transfected into the #11 cell line, under the same conditions as previously indicated. […] Kinase dead mutants have the high signal due to inability to phosphorylate Rb.
Computer modeling was used to reveal the drug-binding pocket and predict drug-resistant mutants. The mutations in CDK4 and CDK6 were created by site-directed mutagenesis. WT or mutated CDK4 or CDK6 along with the CyclinD1 and SB-Rb was co-transfected into #11 cell line, under the same conditions as previously indicated. […] Dose response curves are presented on FIG. 13A and FIG. 13B. Activity of other mutants was very similar to the WT or KD.
CDK4 and CDK6 mutants with known function and unknown function taken from the COSMIC database were analyzed in the present assay and are summarized in Table 7A and Table 7B. The mutants were classified according to their activity. Table 7A and Table 7B also show the number of counts per mutant in the COSMIC database, type of cancer, and luciferase activity compared to the WT (being 100%).

[1] = CDK4 mutants, compared to the WT (being 100%)
[2] = predicted drug resistant CDK4 mutants, relative to WT
[3] = predicted drug resistant CDK4 mutants

Molecule | Luc. activity (/wt) [1] [%] | Luc. activity (/wt) [2] [%] | other results
B1 | 91 | – | luciferase signal compared to WT CDK4 (in words) (CDK4 mutants): a little bit lower basal signal than WT
B2 | – | – | luciferase signal compared to WT CDK4 (in words) (CDK4 mutants): the same activity as a WT
B3 | 117 | – | –
B4 | 125 | – | –
B5 | 130 | – | –
B6 | 300 | – | –
B7 | 230 | – | –
B8 | – | 152 | Observed drug resist. [3]: Resistant
B9 | – | 126 | –
B10 | – | 281 | –
B11 | 59 | – | –
B12 | – | 162 | Observed drug resist. [3]: showed drug resistance; also recorded: Resistant
B13 | 141 | – | –
B14 | 310 | – | –
B15 | – | 195 | –
B16 | – | 156 | –
B17 | 350 | – | –
B18 | – | 160 | –
B19 | 120 | – | –
B20 | – | 182 | –
B21 | – | 157 | Observed drug resist. [3]: showed drug resistance; also recorded: Resistant
B22 | 74.5 | – | –
B23 | – | 97.5 | –
